These results are taken from publication PMC6048123.

Test [1] has as its target FimA domain of the self-complemented construct FimA-DS_(FimA), oxidized (FimAS-S), in the polyprotein (I91)2-FimA-(I91)2 (E. coli) (UniProt P04128). The test is described as follows: single-molecule force spectroscopy (AFM, force-extension).
The target in test [2] is FimF domain of the self-complemented construct FimF-DS_(FimA), oxidized (FimFS-S), in the polyprotein (I91)2-FimF-(I91)2 (E. coli) (UniProt P08189). Described as above.
In test [3] the target is FimF domain, β-strand-complemented and oxidized, in the array polyprotein (I91)2-FimF-FimG-FimH-(I91)2 (E. coli) (UniProt P08189). The test is described as follows: single-molecule force spectroscopy (AFM, force-ramp).
For test [4], the target named is FimH (lectin subdomain FimHL and pilin subdomain FimHP) of the self-complemented construct FimH-DS_( (E. coli) (UniProt P08191)). The test is described as follows: single-molecule force spectroscopy (AFM, force-extension).
The target of test [5] is FimH (lectin and pilin subdomains), β-strand-complemented and oxidized, in the array polyprotein (I9 (E. coli) (UniProt P08191)). The test is described as follows: single-molecule force spectroscopy (AFM, force-ramp).
Test [6] concerns the target FimG domain of the self-complemented construct FimG-DS_(FimF), reduced (FimG_(SH-SH)), in the polyprotein (I91)2-FimG-(I91)2 (E. coli).
Test [7] deals with FimG domain of the self-complemented construct FimG-DS_(FimF), oxidized (FimGS-S), in the polyprotein (I91)2-FimG-(I91)2 (E. coli). The test is described as follows: single-molecule force spectroscopy (AFM, force-extension).
FimG domain of the self-complemented construct FimG-DS_(FimF), oxidized (FimGS-S), in the polyprotein (I91)2-FimG-(I91)2 (E. coli), sequence (P08190 24-167): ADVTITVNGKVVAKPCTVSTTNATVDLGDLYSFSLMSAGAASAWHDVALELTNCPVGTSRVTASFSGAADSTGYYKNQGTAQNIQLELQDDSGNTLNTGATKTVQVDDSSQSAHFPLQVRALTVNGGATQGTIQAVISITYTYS
Test [8] deals with FimG domain, β-strand-complemented and oxidized, in the array polyprotein (I91)2-FimF-FimG-FimH-(I91)2 (E. coli). The test is described as follows: single-molecule force spectroscopy (AFM, force-ramp).
FimG domain, β-strand-complemented and oxidized, in the array polyprotein (I91)2-FimF-FimG-FimH-(I91)2 (E. coli), sequence (P08190 24-167): as above

UniProt P04128, sequence (P04128 24-182): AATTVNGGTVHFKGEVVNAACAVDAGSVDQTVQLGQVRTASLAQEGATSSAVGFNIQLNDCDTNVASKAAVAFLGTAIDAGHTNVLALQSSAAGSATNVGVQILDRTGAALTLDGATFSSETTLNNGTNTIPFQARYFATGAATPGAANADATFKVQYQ

As to “donor β-strand of FimA (DS_(FimA)) linked by DNKQ to the C-terminus of FimA in (I91)2-FimA-(I91)2 (from UniProt P04128) (peptide)”, in test [1], the unfolding force (rupture of the β-strand interaction) was determined as 527 pN.

Take “donor β-strand of FimA (DS_(FimA)) linked by DNKQ to the C-terminus of FimF in (I91)2-FimF-(I91)2 (peptide)”: the unfolding force (rupture of the β-strand interaction) in test [2] turned out to be 418 pN.

Molecule “donor β-strand of FimA complementing FimF in the array polyprotein (I91)2-FimF-FimG-FimH-(I91)2 (peptide)” registered an unfolding force in force-ramp (rupture of the β-strand interaction) in test [3] of 281 pN.

“donor β-strand of FimG (DS_(FimG)) linked by DNKQ to the C-terminus of FimH in (I91)2-FimH-(I91)2 (from UniProt P08190) (peptide)”: the rupture force of FimHP (rupture of the β-strand interaction) in test [4] stood at 362 pN.

In the case of “donor β-strand of FimG complementing FimH in the array polyprotein (I91)2-FimF-FimG-FimH-(I91)2 (from UniProt P08190) (peptide)”, the unfolding force of FimHP in force-ramp (rupture of the β-strand interaction) in test [5] was determined as 238 pN.

B1: DsbA oxidoreductase (enzyme)
chain: AQYEDGKQYTTLEKPVAGAPQVLEFFSFFCPHCYQFEEVLHISDNVKKKLPEGVKMTKYHVNFMGGDLGKDLTQAWAVAMALGVEDKVTVPLFEGVQKTQTIRSASDIRDVFINAGIKGEEYDAAWNSFVVKSLVAQQEKAAADVQLRGVPAMFVNGKYQLNPQGMDTSNMDVFVQQYADTVKYLSEKK
In test [6], B1 came in with a refolding probability of FimG in force-clamp AFM after 45 s at 0 pN, with DsbA (100 μM) against reduced FimG alone (around 20%) of 70%.

B2: donor β-strand of FimF (DS_(FimF)) linked by DNKQ to the C-terminus of FimG in (I91)2-FimG-(I91)2 (peptide)
chain: DNKQADSTITIRGYVRDNGCSVAAESTNFTVDLMENAAKQFNNIGATTPVVPFRILLSPCGNAVSAVKVGFTGVADSHNANLLALENTVSAASGLGIQLLNEQQNQIPLNAPSSALSWTTLTPGKPNTLNFYARLMATQVPVTAGHINATATFTLEYQ
Molecule B2 showed an unfolding force (rupture of the β-strand interaction) in test [7] of 431 pN.

B3: donor β-strand of FimF complementing FimG in the array polyprotein (I91)2-FimF-FimG-FimH-(I91)2 (peptide)
chain: B2 chain
Consider B3, for which the unfolding force in force-ramp (rupture of the β-strand interaction) in test [8] is 261 pN.
